Patent US6869778

Assays:
lys-plasminogen, P00747 = target: T1, lys-plasminogen, P00747
T1 chain: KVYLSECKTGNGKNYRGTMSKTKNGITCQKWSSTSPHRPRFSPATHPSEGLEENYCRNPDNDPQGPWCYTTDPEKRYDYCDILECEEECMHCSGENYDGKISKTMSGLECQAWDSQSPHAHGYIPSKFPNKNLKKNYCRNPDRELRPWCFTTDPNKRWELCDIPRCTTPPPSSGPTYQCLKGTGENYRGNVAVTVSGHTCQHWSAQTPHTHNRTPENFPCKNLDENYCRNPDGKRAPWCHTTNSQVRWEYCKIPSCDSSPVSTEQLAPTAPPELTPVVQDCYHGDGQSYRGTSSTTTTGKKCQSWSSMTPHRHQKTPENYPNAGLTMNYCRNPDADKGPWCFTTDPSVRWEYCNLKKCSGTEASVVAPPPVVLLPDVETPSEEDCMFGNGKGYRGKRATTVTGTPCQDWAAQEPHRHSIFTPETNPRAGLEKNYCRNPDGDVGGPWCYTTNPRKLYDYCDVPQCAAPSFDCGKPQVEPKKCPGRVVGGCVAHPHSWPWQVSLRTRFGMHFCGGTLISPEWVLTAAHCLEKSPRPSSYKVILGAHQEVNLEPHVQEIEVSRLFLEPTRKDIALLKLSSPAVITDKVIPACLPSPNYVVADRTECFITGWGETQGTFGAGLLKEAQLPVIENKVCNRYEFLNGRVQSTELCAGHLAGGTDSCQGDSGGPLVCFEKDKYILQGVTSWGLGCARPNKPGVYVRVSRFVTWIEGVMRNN

[1] = target: stimulatory thirteen amino acid peptide P368
[2] = target: soluble fibrin monomers (DESAFIB)

| Protein | Kcat of plasminogen activation in the absence of a cofactor (lys-plasminogen, P00747) | Kcat of plasminogen activation in the presence of fibrin (lys-plasminogen, P00747) | Kcat/Km of plasminogen activation in the absence of a cofactor (lys-plasminogen, P00747) | Kcat/Km of plasminogen activation in the presence of fibrin (lys-plasminogen, P00747) | Km of plasminogen activation in the absence of a cofactor (lys-plasminogen, P00747) | Km of plasminogen activation in the presence of fibrin (lys-plasminogen, P00747) | fold difference of activity toward plasminogen without co-factor, against two-chain t-PA (lys-plasminogen, P00747) | percent of the activity of two-chain t-PA toward plasminogen in the presence of fibrin (lys-plasminogen, P00747) | stimulation of plasminogen activation by co-factor (indirect chromogenic assay) [1] | stimulation of plasminogen activation by co-factor (indirect chromogenic assay) (fibrinogen) | Fold stimulation of kcat/Km by fibrin [2] | fibrin selectivity factor (specific activity in the presence of fibrin over that in the presence of fibrinogen) [2] | stimulation of plasminogen activation by co-factor (indirect chromogenic assay) [2] | fold reduction of activity toward plasminogen without co-factor, against single chain t-PA/R275E (lys-plasminogen, P00747) | percent of the activity of single chain t-PA/R275E toward plasminogen in the presence of fibrin (lys-plasminogen, P00747) |
| --- | --- | --- | --- | --- | --- | --- | --- | --- | --- | --- | --- | --- | --- | --- | --- |
| t-PA/K429Y, two-chain form (protein) chain 1: SYQVICRDEKTQMIYQQHQSWLRPVLRSNRVEYCWCNSGRAQCHSVPVKSCSEPRCFNGGTCQQALYFSDFVCQCPEGFAGKCCEIDTRATCYEDQGISYRGTWSTAESGAECTNWNSSALAQKPYSGRRPDAIRLGLGNHNYCRNPDRDSKPWCYVFKAGKYSSEFCSTPACSEGNSDCYFGNGSAYRGTHSLTESGASCLPWNSMILIGKVYTAQNPSAQALGLGKHNYCRNPDGDAKPWCHVLKNRRLTWEYCDVPSCSTCGLRQYSQPQFR chain 2: IKGGLFADIASHPWQAAIFAKHRRSPGERFLCGGILISSCWILSAAHCFQERFPPHHLTVILGRTYRVVPGEEEQKFEVEKYIVHKEFDDDTYDNDIALLQLKSDSSRCAQESSVVRTVCLPPADLQLPDWTECELSGYGKHEALSPFYSERLYEAHVRLYPSSRCTSQHLLNRTVTDNMLCAGDTRSGGPQANLHDACQGDSGGPLVCLNDGRMTLVGIISWGLGCGQKDVPGVYTKVTNYLDWIRDNMRP | 0.18 s⁻¹ | 0.08 s⁻¹ | 13000 M⁻¹ s⁻¹ | 3e+06 M⁻¹ s⁻¹ | 14 µM | 0.03 µM | differed by a factor of only 1.2 | approximately 75% of the activity of two-chain t-PA | strongly stimulated | strongly stimulated | 230 fold | 1.5 for two-chain t-PA/K429Y | strongly stimulated |  |  |
| t-PA/R275E,K429Y, single-chain form (protein) SYQVICRDEKTQMIYQQHQSWLRPVLRSNRVEYCWCNSGRAQCHSVPVKSCSEPRCFNGGTCQQALYFSDFVCQCPEGFAGKCCEIDTRATCYEDQGISYRGTWSTAESGAECTNWNSSALAQKPYSGRRPDAIRLGLGNHNYCRNPDRDSKPWCYVFKAGKYSSEFCSTPACSEGNSDCYFGNGSAYRGTHSLTESGASCLPWNSMILIGKVYTAQNPSAQALGLGKHNYCRNPDGDAKPWCHVLKNRRLTWEYCDVPSCSTCGLRQYSQPQFEIKGGLFADIASHPWQAAIFAKHRRSPGERFLCGGILISSCWILSAAHCFQERFPPHHLTVILGRTYRVVPGEEEQKFEVEKYIVHKEFDDDTYDNDIALLQLKSDSSRCAQESSVVRTVCLPPADLQLPDWTECELSGYGKHEALSPFYSERLYEAHVRLYPSSRCTSQHLLNRTVTDNMLCAGDTRSGGPQANLHDACQGDSGGPLVCLNDGRMTLVGIISWGLGCGQKDVPGVYTKVTNYLDWIRDNMRP | 0.00046 s⁻¹ | 0.1 s⁻¹ | 78 M⁻¹ s⁻¹ | 2e+06 M⁻¹ s⁻¹ | 5.9 µM | 0.07 µM |  |  | virtually nonresponsive | virtually nonresponsive | 26000 fold | The fibrin selectivity factor for single chain t-PA/R275E,K429Y, however, is 146 | dramatically stimulated by fibrin monomers | reduced by a factor of 17 | approximately 40% of the activity of single chain t-PA/R275E |
